The values that follow are results of earlier work, collected in article PMC2723763.

One may read the Kd as the equilibrium constant for the complex coming apart.

For the data set, the target named is ZPI (Homo sapiens) (UniProt Q9UK55).
UniProt Q9UK55, sequence (Q9UK55 22-444): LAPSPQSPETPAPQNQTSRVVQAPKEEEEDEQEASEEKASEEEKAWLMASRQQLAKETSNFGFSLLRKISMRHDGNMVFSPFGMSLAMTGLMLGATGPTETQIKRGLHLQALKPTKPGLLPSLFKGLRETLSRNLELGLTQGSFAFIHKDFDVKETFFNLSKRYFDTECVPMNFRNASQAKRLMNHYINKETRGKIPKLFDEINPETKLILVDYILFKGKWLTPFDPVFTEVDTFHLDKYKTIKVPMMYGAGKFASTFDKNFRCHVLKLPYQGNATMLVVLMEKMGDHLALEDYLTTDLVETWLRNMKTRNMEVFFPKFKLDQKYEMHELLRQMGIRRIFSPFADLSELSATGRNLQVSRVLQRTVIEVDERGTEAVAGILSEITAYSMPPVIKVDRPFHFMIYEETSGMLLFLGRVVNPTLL

Consider protein Z (from UniProt P22891), for which the dissociation constant (Kd) is 7 nM.
